# Numbering of substitutions follows the chain as printed. Ends that are not written are not given here.
# B1: Variant BAv3-10-Ig (Fc fusion, human)
# chain: AGQCSQNEYFDRLIRACIPCQLRCSSNTPPLTCQRYCNAGVTNSVKGTNAERKSSVECPPSPAPPVAGPSVFLFPPKPKDTLMISRTPEVTCVVVDVSHEDPEVQFNWYVDGVEVHNAKTKPREEQFNSTFRVVSVLTVVHQDWLNGKEYKCKVSNKGLPAPIEKTISKTKGQPREPQVYTLPPSREEMTKNQVSLTCLVKGFYPSDISVEWESNGQPENNYKTTPPMLDSDGSFFLYSKLTVDKSRWQQGNVFSCSVMHEALHNHYTQKSLSLSPGK
# notes: domain: Fc; also called Variant 3-10-Ig; BAv3-10-PIg18
# B2: Variant BAv9-1-Ig (Fc fusion, human)
# chain: B1 chain with R12H
# notes: domain: Fc; also called Variant 9-1-Ig; BAv9-1-pIg18
# B3: Variant BAv11-6-Ig (Fc fusion, human)
# chain: B1 chain with I14L, L22V
# notes: domain: Fc; also called Variant 11-6-Ig; BAv11-6-PIg18
# B4: Variant BAv8-9-Ig (Fc fusion, human)
# chain: B1 chain with R12H, I14L
# notes: domain: Fc; also called Variant 8-9-Ig; BAv8-9-PIg18
# B5: Variant BAv1-12-Ig (Fc fusion, human)
# chain: B1 chain with I14V, R15N
# notes: domain: Fc; also called Variant 1-12-Ig
# B6: BAv9-1-5L-pIg18 (Fc fusion)
# chain: AGQCSQNEYFDHLIRACIPCQLRCSSNTPPLTCQRYCNAGVTNSVGGGGS
# notes: not shown: PIg18: human IgG2 Fc, Ser at Fc positions 4, 5, 11 (native Cys)
# B7: BAv9-1-pIg22 (Fc fusion, human)
# chain: B6 chain with G46K, G48T, G49N, S50A
# notes: domain: Fc; not shown: PIg22: chimeric Fc, CH2 domain of PIg18 (human IgG2 derivative) and CH3 domain of human IgG1
# B8: BAv9-1K46G-pIg22 (Fc fusion, human)
# chain: B6 chain with G48T, G49N, S50A
# notes: as for B7
# B9: BAv9-1-5L-pIg22 (Fc fusion, human)
# chain: B6 chain
# modifications: not fully specified (C-terminus); cysteine pairing not given here; also: terminal Fc lysine may be cleaved off ([K278]del)
# notes: domain: Fc; terminal lysine may be cleaved off; also called BAv9-1-5L-pIg22 [K278]del; not shown: PIg22: chimeric Fc, CH2 domain of PIg18 (human IgG2 derivative) and CH3 domain of human IgG1
# B10: BAv9-1-[K46-A50]del-pIg22 (Fc fusion, human)
# chain: AGQCSQNEYFDHLIRACIPCQLRCSSNTPPLTCQRYCNAGVTNSV
# modifications: cysteine pairing not given here; also: fused to PIg22 Fc, not in chain
# notes: domain: Fc; also called BAv9-1-des[K46-A50]-PIg22; not shown: PIg22: chimeric Fc, CH2 domain of PIg18 (human IgG2 derivative) and CH3 domain of human IgG1
# B11: BAv66-Ig (Fc fusion, human)
# chain: B1 chain with R12H, L22G
# notes: domain: Fc; also called Variant BAv66-Ig
# B12: Variant 50238475-Ig (Fc fusion, human)
# chain: B1 chain with F10Y, R12H, P19S, L22I, T28N, L31P, T32I
# notes: domain: Fc; also called Parent 9; Variant 50238475-PIg18
# Target: T1, FLAG-tagged human BAFF (human, UniProt Q9Y275 134-285, limits assumed)
# T1 construct: used in BIACORE (Ex. 9) and KINEXA (Ex. 11); also called huBAFF
# Experiment: KinExA
# Description: (§1) Equilibrium measurements were performed using FLAG-tagged, recombinant huBAFF and huAPRIL ligands. Fixed ligand concentrations of human BAFF or human APRIL were incubated with serial dilutions of the variant BCMA ECD-Ig fusion polypeptides, and free ligand was detected in a KINEXA 3200 Instrument. variant BCMA ECD-Ig fusion polypeptides were first diluted in equilibration buffer (1×PBS, pH 7.4, 1 mg/ml BSA) to a range of concentrations from 10 nM to 100 fM. The linear portion of the dilution series was typically 2-fold. Ligands were diluted in equilibration buffer to fixed concentrations ranging from 5 to 20 pM and then incubated with the variant BCMA-Ig dilutions in total reaction volumes ranging from 4.5 to 15 ml. Samples were incubated at room temperature for 48-72 hours to reach equilibrium. For each data point, a fresh column of 850 μl of bead slurry coated with Variant BAv-238475-Ig was introduced into the KINEXA flow cell. Equilibrated samples ranging from 1 to 5 ml reaction volume were injected at a flow rate of 0.25 ml/min. […] The DyLight 649 fluorescent signal was detected using the red filter set (620/30 nanometer excitation filter, 670/40 nanometer emission filter, 645 nanometer dichroic filter) on the KinExA instrument and converted to a voltage signal that was directly proportional to the concentration of free ligand in the equilibrated sample.
# (§2) The standard kinetic exclusion assays and data analyses described above were performed on protein preparations of various variant BCMA ECD-Ig fusion polypeptides, as well as Z-TACI-Ig and [S40G]huBCMA ECD-Ig fusion polypeptides. FIG. 8A, FIG. 8B, and Table 4 summarize the binding data for representative variant BCMA ECD-Ig polypeptides and controls in molar concentrations of huBAFF or huAPRIL determined by KINEXA binding assays.
row,Binder,fold improvement over control
1,B1,400 fold
2,B2,533 fold
3,B3,224 fold
4,B4,75.3 fold
5,B5,231 fold

# Target: T2, FLAG-tagged recombinant human APRIL (human, UniProt O75888 105-250)
# T2 construct: KINEXA ligand; also called huAPRIL
# T2 sequence: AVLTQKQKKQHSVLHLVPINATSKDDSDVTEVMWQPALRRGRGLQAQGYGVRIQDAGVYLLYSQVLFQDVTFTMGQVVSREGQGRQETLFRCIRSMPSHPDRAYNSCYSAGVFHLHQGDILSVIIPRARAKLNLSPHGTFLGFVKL
# Experiment: KinExA
# Description: as §1, §2
row,Binder,fold improvement over control
1,B1,0.47 fold
2,B2,0.8 fold
3,B3,0.1 fold
4,B4,7.1 fold
5,B5,0.68 fold

# Target: T1, FLAG-tagged human BAFF
# Experiment: KinExA
# Remark: another data set of the same source
# Description: as §1
# (§3) Table 5 provides the selectivities of exemplary variant BCMA polypeptides with respect to BAFF and APRIL.
row,Binder,Selectivity for huBAFF (KD APRIL/KD BAFF)
1,B1,0.6 ratio
2,B2,0.47 ratio
3,B3,1.6 ratio
4,B4,0.0075 ratio
5,B5,0.3 ratio

# Target: T2, FLAG-tagged recombinant human APRIL
# Experiment: KinExA
# Remark: another data set of the same source
# Description: as §1, §3
row,Binder,Selectivity for huAPRIL (KD BAFF/KD APRIL)
1,B1,1.7 ratio
2,B2,2.1 ratio
3,B3,0.62 ratio
4,B4,134 ratio
5,B5,3.56 ratio

# Target: T1, FLAG-tagged human BAFF
# Experiment: KinExA
# Remark: another data set of the same source
# Description: as §1
# (§4) The various fusion proteins described above were expressed and purified as described previously (Examples 2 and 3 for the CET1019AS based plasmids and Examples 7 and 8 for the pcDNA based plasmids). […] The BAv9-1-Ig Fc proteins typically exist in solution as a dimeric fusion protein. The purified fusion proteins were assayed for binding activity using BIACORE (Example 9) and KINEXA (Example 11) assays.
row,Binder,Kd
1,B6,0.301 pM
2,B7,0.537 pM
3,B8,0.484 pM
4,B9,0.864 pM
5,B10,0.417 pM

# Target: T2, FLAG-tagged recombinant human APRIL
# Experiment: KinExA
# Remark: another data set of the same source
# Description: as §1, §4
row,Binder,Kd
1,B6,1.26 pM
2,B7,0.088 pM
3,B8,0.32 pM
4,B9,0.611 pM
5,B10,0.31 pM

# Target: T1, FLAG-tagged human BAFF
# Experiment: BIACORE SPR
# From the text: (§5) The standard kinetic assay measures binding kinetics of trimeric ligand (e.g., human BAFF, cynomolgus monkey APRIL, mouse BAFF, or mouse APRIL) coated on sensor chips and dimeric analytes (e.g., variant BCMA-Ig fusion proteins) in the mobile phase. […] For human BAFF, cynomolgus monkey APRIL, and mouse APRIL measurements, mouse monoclonal antibody (IgG1) anti-FLAG M2 (Sigma Aldrich, Cat. No. F1804) was immobilized on CM3 sensor chips (GE Healthcare, Cat. No. BR-1005-41) according to the manufacturer's protocol. Antibody was diluted to 30 μg/ml in immobilization buffer (10 mM pH 5±0.20; GE Healthcare; GE Healthcare, Catalog No. BR-1003-51). […] Unreacted sites were quenched with 35 μl of 1M ethanolamine-HCl, pH 8.5 (GE Healthcare, GE Healthcare, Cat. No. BR-1000-50). This procedure typically yielded 3,000-4,000 response units (RU) of coupled antibody.
# (§6) The fusion polypeptides were diluted in HBS-EP buffer and flowed over ligand-coated sensor chips. The variant BCMA-Ig and surrogate control fusion proteins were injected at three concentrations (1.5 nM, 15 nM, and 150 nM at 30 μl/min for 2 minutes per association phase) in a single binding cycle, followed by a 20 minute incubation with HBS-EP buffer containing no protein at the same flow rate. A similar protocol was followed for Z-TACI-Ig, except that the injections were at 4.5 nM, 45 nM, and 450 nM.
# (§7) The analyses described above were performed on protein preparations of representative variant BCMA ECD-Ig fusion polypeptides, as well as the Z-TACI-Ig and [S40G]huBCMA ECD-Ig control fusion polypeptides, and the data is presented in Table 1.
row,Binder,fold improvement KD vs control
1,B1,24.6 fold
2,B2,14.8 fold
3,B3,7.6 fold
4,B11,1.3 fold
5,B12,2.2 fold
6,B4,12.6 fold
7,B5,9.8 fold

# Target: T3, FLAG-tagged cynomolgous APRIL (cynomolgus monkey, UniProt A0ACM8R0G4 110-250 (rhesus entry))
# T3 construct: FLAG-tagged, expressed with TPA signal peptide; also called cyAPRIL
# T3 sequence: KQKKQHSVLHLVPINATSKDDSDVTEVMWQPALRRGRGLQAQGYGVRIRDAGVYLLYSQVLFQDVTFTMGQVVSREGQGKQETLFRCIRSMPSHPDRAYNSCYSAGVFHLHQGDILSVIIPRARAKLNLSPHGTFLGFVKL
# Experiment: BIACORE SPR
# From the text: as §5, §6, §7
row,Binder,fold improvement KD vs control
1,B1,1.1 fold
2,B2,0.7 fold
3,B3,0.6 fold
4,B11,0.00024 fold
5,B12,0.2 fold
6,B4,0.7 fold
7,B5,1.5 fold

# Target: T1, FLAG-tagged human BAFF
# Experiment: BIACORE SPR
# Remark: another data set of the same source
# Description: (§8) For human BAFF, cynomolgus monkey APRIL, and mouse APRIL measurements, mouse monoclonal antibody (IgG1) anti-FLAG M2 (Sigma Aldrich, Cat. No. F1804) was immobilized on CM3 sensor chips (GE Healthcare, Cat. No. BR-1005-41) according to the manufacturer's protocol. Antibody was diluted to 30 μg/ml in immobilization buffer (10 mM pH 5±0.20; GE Healthcare; GE Healthcare, Catalog No. BR-1003-51). […] Unreacted sites were quenched with 35 μl of 1M ethanolamine-HCl, pH 8.5 (GE Healthcare, GE Healthcare, Cat. No. BR-1000-50). This procedure typically yielded 3,000-4,000 response units (RU) of coupled antibody.
# as §6
# (§9) Sequence optimization involved generating revertants from the variant BCMA ECD-Ig molecules using standard site-directed mutagenesis methods such as by SOEing as described herein above. Single as well as multiple revertants from twelve different variant-BCMA-pIg18 were generated, cloned in the pcDNA3.1 vector (Life Technologies, as described in Example 6), expressed and purified as described in Examples 6-8. The resulting proteins were assayed for their binding characteristics using Surface Plasmon Resonance as described in Example 9.
row,Binder,fold improvement over control
1,B12,4.7 fold

# Target: T3, FLAG-tagged cynomolgous APRIL
# Experiment: BIACORE SPR
# Remark: another data set of the same source
# Description: as §8, §6, §9
row,Binder,fold improvement over control
1,B12,0.4 fold

# Target: T1, FLAG-tagged human BAFF
# Experiment: BIACORE SPR
# Remark: another data set of the same source
# Description: as §8, §6, §4
row,Binder,Kd
1,B6,17.5 pM
2,B7,15.7 pM
3,B8,16.5 pM
4,B9,16.5 pM
5,B10,20.4 pM

# Target: T3, FLAG-tagged cynomolgous APRIL
# Experiment: BIACORE SPR
# Remark: another data set of the same source
# Description: as §8, §6, §4
row,Binder,Kd
1,B6,42.5 pM
2,B7,33.7 pM
3,B8,45.6 pM
4,B9,41.8 pM
5,B10,41.8 pM

# From patent US20250042970A1 (AURINIA PHARMACEUTICALS, published 2025)
